Measured values from patent US20230391826A1, “COMPOSITIONS AND METHODS FOR TREATING DISEASES” (Sanford Burnham Prebys Medical Discovery Institute, priority 2020, published 2023).

Assays:
[1] = target: EphA2 extracellular domain fused to the Fc portion of an antibody (EphA2-Fc); assay: ELISA, inhibition of ephrinA5-AP binding to immobilized EphA2-Fc
[2] = target: EphA2 extracellular domain fused to the Fc portion of an antibody (EphA2-Fc); assay: ELISA, inhibition of ephrinA5-AP binding to immobilized EphA2-Fc; representative experiment, triplicates
[3] = target: EphA2 endogenously expressed on PC3 prostate cancer cells (UniProt P29317); assay: cell-based or functional assay
Sequence of EphA2 endogenously expressed on PC3 prostate cancer cells (P29317 24-976 limits assumed): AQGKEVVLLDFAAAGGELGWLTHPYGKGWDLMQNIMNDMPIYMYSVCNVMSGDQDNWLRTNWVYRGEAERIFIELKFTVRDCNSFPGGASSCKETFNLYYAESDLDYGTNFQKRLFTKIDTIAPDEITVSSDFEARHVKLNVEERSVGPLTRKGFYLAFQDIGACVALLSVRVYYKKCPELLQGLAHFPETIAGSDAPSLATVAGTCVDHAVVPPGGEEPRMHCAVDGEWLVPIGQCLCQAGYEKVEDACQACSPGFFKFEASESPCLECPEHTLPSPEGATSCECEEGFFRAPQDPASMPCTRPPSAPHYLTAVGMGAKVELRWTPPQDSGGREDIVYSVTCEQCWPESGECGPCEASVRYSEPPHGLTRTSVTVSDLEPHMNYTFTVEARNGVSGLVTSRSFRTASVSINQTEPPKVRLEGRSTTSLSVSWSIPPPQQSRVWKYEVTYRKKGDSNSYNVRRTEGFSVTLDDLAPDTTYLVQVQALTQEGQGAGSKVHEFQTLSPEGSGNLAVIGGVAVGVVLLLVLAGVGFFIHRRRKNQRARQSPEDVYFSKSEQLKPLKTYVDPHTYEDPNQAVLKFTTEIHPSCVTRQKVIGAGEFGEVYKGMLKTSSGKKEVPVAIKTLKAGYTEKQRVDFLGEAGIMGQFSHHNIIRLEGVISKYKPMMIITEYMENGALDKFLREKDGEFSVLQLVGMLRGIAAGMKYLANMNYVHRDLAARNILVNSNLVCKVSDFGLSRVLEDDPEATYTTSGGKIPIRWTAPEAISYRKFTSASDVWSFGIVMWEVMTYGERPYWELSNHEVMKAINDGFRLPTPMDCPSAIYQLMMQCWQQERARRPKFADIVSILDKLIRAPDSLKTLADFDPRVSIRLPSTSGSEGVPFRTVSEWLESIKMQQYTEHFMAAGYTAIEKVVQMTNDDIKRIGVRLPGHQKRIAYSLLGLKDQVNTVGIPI

Sequence of m-ephrinA1 (monomer) (ligand) (P20827 19-182): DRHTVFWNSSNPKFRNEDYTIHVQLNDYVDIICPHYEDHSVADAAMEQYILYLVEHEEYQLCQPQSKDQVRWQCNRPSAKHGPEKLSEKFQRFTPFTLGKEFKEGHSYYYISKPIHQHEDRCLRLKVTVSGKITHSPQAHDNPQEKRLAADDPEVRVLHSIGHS

IC50 [1] [nM] | IC50 [2] [nM] | Blig (bias factor) [3] | EC50 PY588 [3] [nM] | EC50 pAKT inhib [3] [nM] | EC50 pY588 [3] [nM] | Emax PY588 (normalized to ephrinA1-Fc) [3] | Etop pAKT inhib [3] | IC50 PAKT [3] [nM] | βlig (bias factor) [3] | Etop pY588 (normalized to ephrinA1-Fc) [3] | Substance
0.4 | 0.49 | – | – | – | – | – | – | – | – | – | CGA-WLA-YRPKam dimer (N-ter) (peptide)
– | – | 0 | 0.81 | 1.7 | 3.8 | 1 | 1 | 0.62 | 0 | – | ephrinA1-Fc (dimer) (Fc fusion)
21 | 19 | 0.3 | 28 | 27 | 74 | 0.74 | 1 | 13 | 0.54 | 0.36 | m-ephrinA1 (monomer) (ligand)
